Assay [1] addresses Human complement C1q (human) (UniProt P02745). As to the kind of experiment: C1q deposition ELISA, anti-tag IgG alone at 66.67 nM.
For assay [2], the target named is Anti-P. aeruginosa O6ad scFv, c-myc- and 6× His-tagged (human). The experiment in a line: cell-based or functional assay.
Assay [3] addresses Anti-P. aeruginosa O6ad Fab, c-myc- and 6× His-tagged (human). As to the kind of experiment: cell-based or functional assay.
Assay [4] has the same target. The experiment in a line: ELISA: anti-O6ad Fab coated, two-fold dilutions of anti-tag IgG, goat anti-mouse IgG-HRP. (In general: In an ELISA, binding on a coated surface is turned into a signal by an enzyme label.)
Assay [5] has as its target Anti-P. aeruginosa O6ad scFv, c-myc- and 6× His-tagged (human). The experiment in a line: ELISA, rAb coated, anti-tag IgG titrated (FIG. 7).
For assay [6], the target named is Anti-P. aeruginosa O6ad Fab, c-myc- and 6× His-tagged (human). As to the kind of experiment: ELISA, rAb coated, anti-tag IgG titrated (FIG. 7).
Assay [7] has as its target Anti-P. aeruginosa O6ad scFv, c-myc- and 6× His-tagged (human). The experiment in a line: ELISA: anti-O6ad scFv coated, two-fold dilutions of anti-tag IgG, goat anti-mouse IgG-HRP.

A word on the EC50 (read off the curve): it is the concentration at which the effect is half-maximal. Read a low EC50 (read off the curve) as a more potent agent.

Sequence of UniProt P02745 (P02745 23-245 limits assumed, chain 1 of 3): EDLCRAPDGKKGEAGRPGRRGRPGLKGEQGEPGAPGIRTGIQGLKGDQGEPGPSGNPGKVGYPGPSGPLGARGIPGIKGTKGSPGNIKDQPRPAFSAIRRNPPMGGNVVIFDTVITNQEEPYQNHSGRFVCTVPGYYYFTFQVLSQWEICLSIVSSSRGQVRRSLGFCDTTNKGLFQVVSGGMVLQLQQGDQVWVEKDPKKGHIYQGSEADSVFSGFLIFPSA
Sequence of UniProt P02745 (P02746 28-253 limits assumed, chain 2 of 3, further chain): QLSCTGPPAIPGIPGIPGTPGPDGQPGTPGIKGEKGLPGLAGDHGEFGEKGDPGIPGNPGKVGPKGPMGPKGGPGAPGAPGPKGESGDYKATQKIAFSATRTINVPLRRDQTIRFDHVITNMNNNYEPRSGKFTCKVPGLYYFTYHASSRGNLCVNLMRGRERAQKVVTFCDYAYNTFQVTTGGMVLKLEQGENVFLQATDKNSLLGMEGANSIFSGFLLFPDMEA
Sequence of UniProt P02745 (P02747 29-245 limits assumed, chain 3 of 3, further chain): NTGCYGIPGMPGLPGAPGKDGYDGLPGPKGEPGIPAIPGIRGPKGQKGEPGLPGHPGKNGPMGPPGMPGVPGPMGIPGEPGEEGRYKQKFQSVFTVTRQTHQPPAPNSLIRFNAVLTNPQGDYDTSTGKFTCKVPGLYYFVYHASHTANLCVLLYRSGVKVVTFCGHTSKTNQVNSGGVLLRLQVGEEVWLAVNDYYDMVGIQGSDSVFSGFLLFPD

Substance “Murine mAb 9E10 (anti-c-myc IgG1) from hybridoma 1-9E10.2 (ATCC CRL-1729) (antibody)” had a fold C1q deposition relative to Penta-His in assay [1] of 1.4 fold. In assay [2], this substance displayed a % phagocytosed bacteria (P. aeruginosa O6ad, J774.1A) of 24.8% and a fold increase of bacterial uptake over the control without antibodies, at 13.09 nM anti-tag IgG of 4.6 fold. Also, in assay [3], the % phagocytosed bacteria (P. aeruginosa O6ad, J774.1A) is 18.8% and the fold increase of bacterial uptake over the control without antibodies, at 13.09 nM anti-tag IgG turned out to be 3.5 fold.
In turn, “Anti-Penta-His IgG1 murine mAb (QIAgen) (antibody)” registered an EC50 (read off the curve) in assay [4] of 1 nM. Besides, the fold binding relative to 9E10 in assay [5] is less than 10 fold. In assay [6], this substance yielded a fold binding relative to 9E10 of less than 10 fold. Further, the EC50 (read off the curve) in assay [7] was 1 nM. In addition, in assay [2], the % phagocytosed bacteria (P. aeruginosa O6ad, J774.1A) was 42%; the fold increase of bacterial uptake over the control without antibodies, at 13.09 nM anti-tag IgG is 10.6 fold; the fold phagocytosis relative to scFv-9E10 was 2 fold. In addition, in assay [3], the % phagocytosed bacteria (P. aeruginosa O6ad, J774.1A) stood at 27%; the fold increase of bacterial uptake over the control without antibodies, at 13.09 nM anti-tag IgG turned out to be 3.5 fold; the fold phagocytosis relative to Fab-9E10 is greater than 1.2 fold.

The values above are taken from US20160215041A1.
